Experimental data published in paper PMC11252808 (Proceedings of the National Academy of Sciences of the …, 2024).
Where no end group is shown, it is not given here. [ ]: non-standard residue; d: D form. pS = N[C@@H](COP(=O)(O)O)C(=O)O

Molecular target: T1, recombinant SUFU (UniProt Q9UMX1 1-484)
T1 sequence (looked up): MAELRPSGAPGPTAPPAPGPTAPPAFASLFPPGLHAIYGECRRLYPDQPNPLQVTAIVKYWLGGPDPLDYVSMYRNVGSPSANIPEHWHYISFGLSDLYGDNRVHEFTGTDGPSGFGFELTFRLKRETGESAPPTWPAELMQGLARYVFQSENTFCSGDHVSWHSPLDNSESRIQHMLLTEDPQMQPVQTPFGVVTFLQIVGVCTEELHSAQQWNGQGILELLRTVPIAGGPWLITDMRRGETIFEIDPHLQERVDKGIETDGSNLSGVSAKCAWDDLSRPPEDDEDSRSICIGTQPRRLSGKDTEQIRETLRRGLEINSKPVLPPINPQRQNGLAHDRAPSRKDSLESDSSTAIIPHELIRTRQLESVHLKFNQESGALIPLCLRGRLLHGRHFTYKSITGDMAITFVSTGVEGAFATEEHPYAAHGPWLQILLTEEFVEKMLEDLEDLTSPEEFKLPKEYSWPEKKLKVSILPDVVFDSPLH
Test: SPR

Kd: 5.08 µM
Binder: MIRT[pS]PNSLVTILNNSRSSSSASGSYGHLSASAISPA (peptide, UniProt P10071 309-345, looked up) [phosphorylated GLI3 peptide (phospho-GLI3^S313_(309–345))]
